From patent US20090130093A1 (AstraZeneca / MedImmune, published 2009)
Where a chain is given by its changes, count along the chain named.

T1: human GM-CSFRα (mature receptor alpha chain, as on human cells) (human, UniProt P15509 23-400)
T1 sequence: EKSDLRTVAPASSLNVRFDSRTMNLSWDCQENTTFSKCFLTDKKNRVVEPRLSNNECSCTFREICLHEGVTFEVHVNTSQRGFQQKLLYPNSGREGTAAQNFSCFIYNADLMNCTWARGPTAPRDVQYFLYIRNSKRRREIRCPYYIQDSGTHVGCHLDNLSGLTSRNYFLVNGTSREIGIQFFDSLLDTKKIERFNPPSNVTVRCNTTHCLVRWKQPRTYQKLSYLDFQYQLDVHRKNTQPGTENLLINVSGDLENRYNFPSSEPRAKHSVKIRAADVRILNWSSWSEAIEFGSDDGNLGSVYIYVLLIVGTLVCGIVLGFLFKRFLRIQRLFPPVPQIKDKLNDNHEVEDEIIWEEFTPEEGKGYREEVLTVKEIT

T2: cynomolgus GM-CSFRα on cynomolgus granulocytes (cynomolgus, UniProt A0A2K5UC70 23-393)
T2 sequence: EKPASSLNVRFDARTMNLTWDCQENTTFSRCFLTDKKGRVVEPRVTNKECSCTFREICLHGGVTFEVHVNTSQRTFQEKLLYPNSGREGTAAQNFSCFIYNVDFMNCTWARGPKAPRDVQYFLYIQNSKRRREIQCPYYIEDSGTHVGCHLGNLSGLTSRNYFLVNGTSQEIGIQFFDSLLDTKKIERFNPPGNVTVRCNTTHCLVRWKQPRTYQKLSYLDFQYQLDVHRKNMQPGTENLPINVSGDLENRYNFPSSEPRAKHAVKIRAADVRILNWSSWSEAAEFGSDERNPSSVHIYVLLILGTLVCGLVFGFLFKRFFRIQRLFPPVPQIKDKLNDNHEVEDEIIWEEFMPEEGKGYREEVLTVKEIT

B1: Antibody 13 IgG4 (antibody, V domains shown)
VH: QVQLVQSGAEVKKPGASVKVSCKISGHSLSELSIHWVRQTPTKGFEWMGGFDPEENEIVYAQRFQGRVTMTEDTSIDTAYLTLSSLRSDDTAVYYCSIVGSFSGWAFDYWGKGTMVTVSS
VL: QAVLTQPSSVSGAPGQRVTISCTGSGSNIGAPYDVSWYQQLPGTAPKLLIYHNNKRPSGVPDRFSASKSGTSASLAITGLQADDEADYYCQSYDSRTGIIVFGGGTKVTVL
B2: Antibody 6 IgG4, non-germlined (antibody, V domains shown)
VH: B1 VH with G104P, W105L, A106T, F107L, D108G, Y109L
VL: QAVLTQPSSVSGAPGQRVTISCTGSGSNIGAPYDVSWYQQLPGTAPKLLIYHNNKRPSGVPDRFSASKSGTSASLAITGLQADDEADYYCATVEAGLSGSVFGGGTKLTVL
B3: Antibody 18 IgG4 (antibody, V domains shown)
VH: B1 VH with S33F, I98T, W105P, F107L, D108H, Y109L
VL: B1 VL with R96Q, T97W, G98N, I99Q, I100P, V101L
B4: 28G5 (Antibody 3) IgG4, parent antibody (antibody, V domains shown)
VH: B1 VH
VL: B1 VL with R96S, T97L, G98S, I99G, I100S
B5: Antibody 2 IgG4 (antibody, V domains shown)
VH: B1 VH with W105P, F107L, D108R, Y109P
VL: B1 VL with R96S, T97L, G98S, I99G, I100S
B6: Antibody 6 (germlined or non-germlined not stated at these places) (antibody, V domains shown)
VH: QVQLVQSGAEVKKPGASVKVSCKVSGYTLTELSIHWVRQAPGKGLEWMGGFDPEENEIVYAQRFQGRVTMTEDTSTDTAYMELSSLRSEDTAVYYCAIVGSFSPLTLGLWGQGTMVTVSS
VL: B2 VL with A2S, S8P, A66G, D83E

Assays:
Assay in all cases: cell-based or functional assay
[1] = biological target: T1, human GM-CSFRα (mature receptor alpha …)
[2] = biological target: T2, cynomolgus GM-CSFRα on cynomolgus …
[3] = biological target: T1, human GM-CSFRα (mature receptor alpha …); remark: listed apart in the source

Binder	IC50, GM-CSF induced proliferation of TF-1 cells [1] [nM]	IC50, cynomolgus granulocyte shape change assay [2] [nM]	also measured
B1	1.11	–	–
B2	–	0.00173	–
B3	0.0133	–	–
B4	–	~5	–
B5	–	0.0032	–
B6	–	–	IC50, colony formation assay with 10 ng/ml human GM-CSF [3]: ~0.08 µg/mL
